Assay results published in patent publication US20240182536A1 (MURAL ONCOLOGY, published 2024).
Where a chain is given by its changes, count along the chain named. Numbers in names are those of the source.

T1: IL-18 receptors on HEK-Blue IL-18 reporter cells (UniProt Q13478 19-541; O95256 20-599, limits assumed)
T1 sequence (looked up) 1: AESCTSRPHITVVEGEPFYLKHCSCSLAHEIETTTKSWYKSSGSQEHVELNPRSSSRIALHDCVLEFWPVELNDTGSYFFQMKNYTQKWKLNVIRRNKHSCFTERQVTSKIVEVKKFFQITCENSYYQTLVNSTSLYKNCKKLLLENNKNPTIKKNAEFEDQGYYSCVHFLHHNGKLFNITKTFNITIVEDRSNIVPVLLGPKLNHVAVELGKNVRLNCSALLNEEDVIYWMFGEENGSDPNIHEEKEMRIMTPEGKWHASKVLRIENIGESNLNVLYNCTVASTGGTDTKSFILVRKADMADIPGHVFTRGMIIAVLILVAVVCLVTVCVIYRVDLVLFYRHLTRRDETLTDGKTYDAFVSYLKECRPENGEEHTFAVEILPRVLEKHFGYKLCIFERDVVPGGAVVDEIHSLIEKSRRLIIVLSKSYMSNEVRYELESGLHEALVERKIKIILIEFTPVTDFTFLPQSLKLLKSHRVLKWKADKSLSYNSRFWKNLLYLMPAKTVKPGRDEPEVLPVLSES
T1 sequence (looked up) 2: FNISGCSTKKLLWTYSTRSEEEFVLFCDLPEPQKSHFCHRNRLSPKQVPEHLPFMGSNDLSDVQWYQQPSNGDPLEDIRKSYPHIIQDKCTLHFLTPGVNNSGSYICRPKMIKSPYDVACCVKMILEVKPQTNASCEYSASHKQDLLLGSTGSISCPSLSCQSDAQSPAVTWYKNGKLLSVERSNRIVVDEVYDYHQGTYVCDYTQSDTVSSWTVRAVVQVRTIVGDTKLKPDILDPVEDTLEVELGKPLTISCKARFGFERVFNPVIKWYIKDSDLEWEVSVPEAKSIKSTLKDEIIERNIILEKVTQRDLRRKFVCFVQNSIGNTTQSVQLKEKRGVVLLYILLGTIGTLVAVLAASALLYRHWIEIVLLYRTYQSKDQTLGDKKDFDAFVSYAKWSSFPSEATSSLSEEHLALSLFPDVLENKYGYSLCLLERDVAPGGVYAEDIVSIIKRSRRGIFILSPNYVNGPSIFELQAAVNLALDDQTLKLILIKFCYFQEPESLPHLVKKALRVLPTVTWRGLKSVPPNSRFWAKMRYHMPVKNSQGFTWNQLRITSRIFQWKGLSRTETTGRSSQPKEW

T2: IL-18 binding protein (IL-18BP) (UniProt O95998 31-194)
T2 sequence (looked up): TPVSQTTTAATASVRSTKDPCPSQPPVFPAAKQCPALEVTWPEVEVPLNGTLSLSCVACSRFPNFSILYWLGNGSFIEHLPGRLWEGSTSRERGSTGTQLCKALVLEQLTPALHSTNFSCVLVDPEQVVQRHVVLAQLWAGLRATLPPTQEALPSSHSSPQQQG

B1: IL-18 variant E6G, D54A, S55K, T63S, N91K, Q114R (ligand)
chain: YFGKLGSKLSVIRNLNDQVLFIDQGNRPLFEDMTDSDMRDNAPRTIFIISMYKAKQPRGMAVSISVKSEKISTLSSENKIISFKEMNPPDKIKDTKSDIIFFQRSVPGHDNKMRFESSSYEGYFLASEKERDLFKLILKKEDELGDRSIMFTVQNED
B2: IL-18 variant G3I, E6Q, N91M, R104Y (ligand)
chain: B1 chain with G3I, G6Q, A54D, K55S, S63T, K91M, R104Y, R114Q
B3: IL-18 variant G3L, E6Q, D54Y, S55P, T63S, N91S, R104Q (ligand)
chain: B1 chain with G3L, G6Q, A54Y, K55P, K91S, R104Q, R114Q
B4: IL-18 variant G3D, E6Q, R27S, K53R, D54A, S55R, T63S, N91Q (ligand)
chain: B1 chain with G3D, G6Q, R27S, K53R, K55R, K91Q, R114Q
B5: IL-18 variant E6D, D54T, S55W, T63S, N91S, R104T (ligand)
chain: B1 chain with G6D, A54T, K55W, K91S, R104T, R114Q
B6: IL-18 variant N91S, R104H (ligand)
chain: B1 chain with G6E, A54D, K55S, S63T, K91S, R104H, R114Q
B7: IL-18 variant G3V, E6Q, T34P, D54M, S55F, N91R, R104H (ligand)
chain: B1 chain with G3V, G6Q, T34P, A54M, K55F, S63T, K91R, R104H, R114Q
B8: IL-18 variant G3S, E6Q, K53N, D54T, S55N, T63A, I80T, N91S (ligand)
chain: B1 chain with G3S, G6Q, K53N, A54T, K55N, S63A, I80T, K91S, R114Q

How the values were obtained:
[1] = biological target: T1, IL-18 receptors on HEK-Blue IL-18 …; assay: cell-based or functional assay
[2] = biological target: T2, IL-18 binding protein (IL-18BP); assay: cell-based or functional assay

Binder | Activity, No BP, DF-100000 [1] | Activity, No BP, DF-500000 [1] | Activity, No BP, DF-2500000 [1] | Activity, +100 nM BP, DF-1000002 [2] | Activity, +100 nM BP, DF-5000003 [2] | Activity, +100 nM BP, DF-25000004 [2] | Ratio (-BP/+BP), DF-1000005 [2] | Ratio (-BP/+BP), DF-5000006 [2] | Ratio (-BP/+BP), DF-25000007 [2]
B1 | 2.2 | 2.05 | 1.61 | 1.89 | 1.33 | 0.49 | 1.17 | 1.54 | 3.3
B2 | 2.12 | 2 | 1.53 | 1.84 | 0.96 | 0.29 | 1.15 | 2.07 | 5.26
B3 | 1.66 | 0.9 | 0.37 | 0.75 | 0.19 | 0.1 | 2.23 | 4.67 | 3.8
B4 | 1.02 | 0.41 | 0.13 | 0.52 | 0.15 | 0.09 | 1.95 | 2.81 | 1.5
B5 | 1.27 | 0.55 | 0.18 | 0.37 | 0.15 | 0.1 | 3.41 | 3.62 | 1.93
B6 | 1.34 | 0.61 | 0.19 | 0.09 | 0.08 | 0.11 | 14.7 | 7.35 | 1.72
B7 | 0.97 | 0.41 | 0.13 | 0.14 | 0.08 | 0.08 | 6.88 | 4.95 | 1.77
B8 | 0.24 | 0.11 | 0.08 | 0.23 | 0.11 | 0.11 | 1.05 | 1.03 | 0.71
